In patent publication US20200397896A1, “Combination Therapies Comprising Daratumumab, Bortezomib, Thalidomide and Dexamethasone and Their Uses” (Janssen Biotech, Inc., priority 2019, published 2020):

Columns and labels:
[1] = tested on: patients with relapsed or refractory multiple myeloma who had received at least 3 prior lines of therapy; test: SIRIUS open-label trial, DARZALEX monotherapy efficacy; assay type: in vivo, human
From the text: (§1) Treatment continued until unacceptable toxicity or disease progression.

[2] = tested on: patients with multiple myeloma; settings: human, in vivo
[3] = tested on: patients with newly diagnosed multiple myeloma eligible for ASCT; settings: in vivo
From the text: Safety evaluations will include adverse event monitoring, physical examinations, electrocardiogram monitoring (ECGs), clinical laboratory parameters (hematology and chemistry), vital sign measurements, and Eastern Cooperative Oncology Group (ECOG) performance status.
In general, adverse events that occurred during the induction/consolidation and maintenance stages will be summarized separately. Treatment-emergent adverse events for each stage will be defined as events that occur or worsen after administration of the first dose of during that stage and through 30 days after the last dose of study drug in that stage and before the next phase of treatment begins.
Melphalan 200 mg/m^2 was pre-ASCT high-dose therapy.

[4] = human, in vivo
[5] = tested on: adult patients with relapsed and refractory multiple myeloma; settings: human, in vivo
From the text: (§2) The median duration of exposure was 3.3 months (range: 0.03 to 20.04 months).

[6] = Clinical pharmacokinetics of daratumumab; settings: 1 to 24 mg/kg monotherapy or 1 to 16 mg/kg combination therapy
[7] = tested on: patients with relapsed or refractory multiple myeloma who had received at least 2 different cytoreductive therapies; test: GEN501 open-label dose escalation trial, DARZALEX monotherapy efficacy; assay type: in vivo, human
From the text: as §1

[8] = tested on: anti-daratumumab antibodies; test: Immunogenicity in clinical trials; assay type: in vivo, human
From the text: As with all therapeutic proteins, there is the potential for immunogenicity. The detection of antibody formation is highly dependent on the sensitivity and specificity of the assay. Additionally, the observed incidence of antibody (including neutralizing antibody) positivity in an assay may be influenced by several factors including assay methodology, sample handling, timing of sample collection, concomitant medications, and underlying disease. For these reasons, comparison of the incidence of antibodies to daratumumab in the studies described below with the incidence of antibodies in other studies or to other products may be misleading. […] One patient administered DARZALEX as combination therapy, developed transient neutralizing antibodies against daratumumab. However, this assay has limitations in detecting anti-daratumumab antibodies in the presence of high concentrations of daratumumab; therefore, the incidence of antibody development might not have been reliably determined.

[9] = DARZALEX solution pH and storage of diluted solution; assay type: physicochemical
From the text: Prepare the solution for infusion using aseptic technique as follows: • Calculate the dose (mg), total volume (mL) of DARZALEX solution required and the number of DARZALEX vials needed based on patient actual body weight. • Check that the DARZALEX solution is colorless to pale yellow. […] Infusion bags/containers must be made of either polyvinylchloride (PVC), polypropylene (PP), polyethylene (PE) or polyolefin blend (PP+PE). Dilute under appropriate aseptic conditions. Discard any unused portion left in the vial. • Gently invert the bag/container to mix the solution. […] The diluted solution may develop very small, translucent to white proteinaceous particles, as daratumumab is a protein. […] (59° F.-77° F.) and in room light. Diluted solution may be kept at room temperature for a maximum of 15 hours (including infusion time). • If not used immediately, the diluted solution can be stored prior to administration for up to 24 hours at refrigerated conditions 2° C.-8° C. (36° F.-46° F.) and protected from light.
DARZALEX is supplied as a colorless to pale yellow preservative-free solution for intravenous infusion in single-dose vials. The pH is 5.5.

[10] = tested on: adult patients with relapsed and refractory multiple myeloma; test: DARZALEX monotherapy safety, three open-label clinical trials
From the text: as §2

[11] = tested on: patients with multiple myeloma; test: Clinical trials pooled (monotherapy and combination treatments; N=2,066), safety
[12] = monotherapy 16 mg/kg, N = 156, treatment-emergent laboratory abnormality

With “DARZALEX: IgG1κ human monoclonal antibody against CD38; HC SEQ ID NO: 9, LC SEQ ID NO: 10” the “median duration of response” value [1] was 7.4 months, the “median time to response” value [1] was 1 month and the “Overall response rate (ORR)” value ([1]; N = 106) was “(29.2%)”. The “Partial response (PR)” value ([1]; N = 106) was “(17.0%)”, the “Stringent complete response (sCR)” value ([1]; N = 106) was “(2.8%)” and the “Very good partial response (VGPR)” value ([1]; N = 106) was “(9.4%)”. For the same substance, the “Hepatitis B virus reactivation” value [2] was “less than 1%”, the “IRRs Grade 3 or 4 at re-initiation following ASCT” value [3] was under 1% and the “incidence of IRRs, first infusion following ASCT” value [3] was 11%. The “linear clearance, mean±SD” value [4] was 171.4 ± 95.3 mL/day, the “terminal half-life associated with linear clearance, mean±SD” value [4] was 18 ± 9 days and the “time to steady state into the every 4-week dosing period” value [4] was “approximately 5 months”. The “trough serum concentration (Cmin) at the end of weekly dosing, mean±SD” value [4] was 573 ± 332 µg/mL, the volume of distribution [4] was 4.7 ± 1.3 L and the herpes zoster [5] was 3%. For the same substance, the “area under the concentration-time curve (AUC) versus dose” value [6] was “increases more than proportionally”, the “CR, number of patients” value ([7]; GEN501) was 1 and the “VGPR, number of patients” value ([7]; GEN501) was 3. For the same substance, the “median duration of response” value ([7]; GEN501) was “not estimable”, the “median time to response” value ([7]; GEN501) was 1 month and the Overall response rate ([7]; GEN501, 42 patients, 16 mg/kg) was 36%. The “patients positive for anti-daratumumab antibodies” value ([8]; 111 evaluable monotherapy patients) was “none”, the “patients positive for anti-daratumumab antibodies” value ([8]; 1,050 evaluable combination therapy patients) was 2 and the “patients who developed transient neutralizing antibodies against daratumumab” value ([8]; combination therapy) was “One”. The “storage time of diluted solution at refrigerated conditions” value ([9]; 2° C.-8° C., protected from light) was “up to 24 hours”, the “storage time of diluted solution at room temperature (including infusion time)” value ([9]; 15° C.-25° C., room light, diluted in 0.9% Sodium Chloride) was at most 15 h and the pH of solution ([9]; single-dose vial solution) was 5.5. The “Serious adverse reaction: general physical health deterioration” value ([10]; monotherapy) was 3%, the “Serious adverse reaction: pneumonia” value ([10]; monotherapy) was 6% and the “Serious adverse reaction: pyrexia” value ([10]; monotherapy) was 3%. The “discontinuations due to adverse reactions” value ([10]; monotherapy) was 4%, the “treatment delay due to adverse reactions” value ([10]; monotherapy) was 15% and the “Arthralgia, Any Grade” value ([10]; monotherapy 16 mg/kg, N = 156) was 17%. The “Arthralgia, Grade 3” value ([10]; monotherapy 16 mg/kg, N = 156) was 0%, the “Arthralgia, Grade 4” value ([10]; monotherapy 16 mg/kg, N = 156) was 0% and the “Back pain, Any Grade” value ([10]; monotherapy 16 mg/kg, N = 156) was 23%. For the same substance, the “Back pain, Grade 3” value ([10]; monotherapy 16 mg/kg, N = 156) was 2%, the “Back pain, Grade 4” value ([10]; monotherapy 16 mg/kg, N = 156) was 0% and the “Chills, Any Grade” value ([10]; monotherapy 16 mg/kg, N = 156) was 10%. The “Chills, Grade 3” value ([10]; monotherapy 16 mg/kg, N = 156) was 0%, the “Chills, Grade 4” value ([10]; monotherapy 16 mg/kg, N = 156) was 0% and the “Constipation, Any Grade” value ([10]; monotherapy 16 mg/kg, N = 156) was 15%. The “Constipation, Grade 3” value ([10]; monotherapy 16 mg/kg, N = 156) was 0%, the “Constipation, Grade 4” value ([10]; monotherapy 16 mg/kg, N = 156) was 0% and the “Cough, Any Grade” value ([10]; monotherapy 16 mg/kg, N = 156) was 21%. The “Cough, Grade 3” value ([10]; monotherapy 16 mg/kg, N = 156) was 0%, the “Cough, Grade 4” value ([10]; monotherapy 16 mg/kg, N = 156) was 0% and the “Decreased appetite, Any Grade” value ([10]; monotherapy 16 mg/kg, N = 156) was 15%. For the same substance, the “Decreased appetite, Grade 3” value ([10]; monotherapy 16 mg/kg, N = 156) was 1%, the “Decreased appetite, Grade 4” value ([10]; monotherapy 16 mg/kg, N = 156) was 0% and the “Diarrhea, Any Grade” value ([10]; monotherapy 16 mg/kg, N = 156) was 16%. For the same substance, the “Diarrhea, Grade 3” value ([10]; monotherapy 16 mg/kg, N = 156) was 1%, the “Diarrhea, Grade 4” value ([10]; monotherapy 16 mg/kg, N = 156) was 0% and the “Dyspnea, Any Grade” value ([10]; monotherapy 16 mg/kg, N = 156) was 15%. The “Dyspnea, Grade 3” value ([10]; monotherapy 16 mg/kg, N = 156) was 1%, the “Dyspnea, Grade 4” value ([10]; monotherapy 16 mg/kg, N = 156) was 0% and the “Fatigue, Any Grade” value ([10]; monotherapy 16 mg/kg, N = 156) was 39%. The “Fatigue, Grade 3” value ([10]; monotherapy 16 mg/kg, N = 156) was 2%, the “Fatigue, Grade 4” value ([10]; monotherapy 16 mg/kg, N = 156) was 0% and the “Headache, Any Grade” value ([10]; monotherapy 16 mg/kg, N = 156) was 12%. The “Headache, Grade 3” value ([10]; monotherapy 16 mg/kg, N = 156) was 1%, the “Headache, Grade 4” value ([10]; monotherapy 16 mg/kg, N = 156) was 0% and the “Hypertension, Any Grade” value ([10]; monotherapy 16 mg/kg, N = 156) was 10%. The “Hypertension, Grade 3” value ([10]; monotherapy 16 mg/kg, N = 156) was 5%, the “Hypertension, Grade 4” value ([10]; monotherapy 16 mg/kg, N = 156) was 0% and the “Infusion reaction, Any Grade” value ([10]; monotherapy 16 mg/kg, N = 156) was 48%. For the same substance, the “Infusion reaction, Grade 3” value ([10]; monotherapy 16 mg/kg, N = 156) was 3%, the “Infusion reaction, Grade 4” value ([10]; monotherapy 16 mg/kg, N = 156) was 0% and the “Musculoskeletal chest pain, Any Grade” value ([10]; monotherapy 16 mg/kg, N = 156) was 12%. The “Musculoskeletal chest pain, Grade 3” value ([10]; monotherapy 16 mg/kg, N = 156) was 1%, the “Musculoskeletal chest pain, Grade 4” value ([10]; monotherapy 16 mg/kg, N = 156) was 0% and the “Nasal congestion, Any Grade” value ([10]; monotherapy 16 mg/kg, N = 156) was 17%. The “Nasal congestion, Grade 3” value ([10]; monotherapy 16 mg/kg, N = 156) was 0%, the “Nasal congestion, Grade 4” value ([10]; monotherapy 16 mg/kg, N = 156) was 0% and the “Nasopharyngitis, Any Grade” value ([10]; monotherapy 16 mg/kg, N = 156) was 15%. The “Nasopharyngitis, Grade 3” value ([10]; monotherapy 16 mg/kg, N = 156) was 0%, the “Nasopharyngitis, Grade 4” value ([10]; monotherapy 16 mg/kg, N = 156) was 0% and the “Nausea, Any Grade” value ([10]; monotherapy 16 mg/kg, N = 156) was 27%. The “Nausea, Grade 3” value ([10]; monotherapy 16 mg/kg, N = 156) was 0%, the “Nausea, Grade 4” value ([10]; monotherapy 16 mg/kg, N = 156) was 0% and the “Pain in extremity, Any Grade” value ([10]; monotherapy 16 mg/kg, N = 156) was 15%. For the same substance, the “Pain in extremity, Grade 3” value ([10]; monotherapy 16 mg/kg, N = 156) was 1%, the “Pain in extremity, Grade 4” value ([10]; monotherapy 16 mg/kg, N = 156) was 0% and the “Pneumonia, Any Grade” value ([10]; monotherapy 16 mg/kg, N = 156) was 11%. For the same substance, the “Pneumonia, Grade 3” value ([10]; monotherapy 16 mg/kg, N = 156) was 6%, the “Pneumonia, Grade 4” value ([10]; monotherapy 16 mg/kg, N = 156) was 0% and the “Pyrexia, Any Grade” value ([10]; monotherapy 16 mg/kg, N = 156) was 21%. For the same substance, the “Pyrexia, Grade 3” value ([10]; monotherapy 16 mg/kg, N = 156) was 1%, the “Pyrexia, Grade 4” value ([10]; monotherapy 16 mg/kg, N = 156) was 0% and the “Vomiting, Any Grade” value ([10]; monotherapy 16 mg/kg, N = 156) was 14%. The “Vomiting, Grade 3” value ([10]; monotherapy 16 mg/kg, N = 156) was 0%, the “Vomiting, Grade 4” value ([10]; monotherapy 16 mg/kg, N = 156) was 0% and the “Anemia, Any Grade” value [10, 12] was 45%. The “Anemia, Grade 3” value [10, 12] was 19%, the “Anemia, Grade 4” value [10, 12] was 0% and the “Lymphopenia, Any Grade” value [10, 12] was 72%. For the same substance, the “Lymphopenia, Grade 3” value [10, 12] was 30%, the “Lymphopenia, Grade 4” value [10, 12] was 10% and the “Neutropenia, Any Grade” value [10, 12] was 60%. The “Neutropenia, Grade 3” value [10, 12] was 17%, the “Neutropenia, Grade 4” value [10, 12] was 3% and the “Thrombocytopenia, Any Grade” value [10, 12] was 48%. For the same substance, the “Thrombocytopenia, Grade 3” value [10, 12] was 10%, the “Thrombocytopenia, Grade 4” value [10, 12] was 8% and the “Serious adverse reactions, patients” value ([10]; monotherapy, 156 patients) was 33%. For the same substance, the “Grade 3/4 infusion reaction at Week 2 or subsequent infusions” value ([11]; N=2,066) was “Less than 1%”, the “incidence of any grade infusion reactions, Week 2 infusion” value ([11]; N=2,066) was 2% and the “incidence of any grade infusion reactions, first (16 mg/kg, Week 1) infusion” value ([11]; N=2,066) was 37%. For the same substance, the “incidence of any grade infusion reactions, subsequent infusions (cumulatively)” value ([11]; N=2,066) was 6%, the “incidence of infusion modification due to reactions” value ([11]; N=2,066) was 36% and the “patients who experienced an infusion reaction” value ([11]; clinical trials, all patients) was “approximately half”. The “persistence of positive indirect antiglobulin test after the last infusion” value ([11]; human, in vivo) was “up to 6 months”.
